According to paper PMC2695768:

Target: influenza virus nucleoprotein (NP), A/Victoria/3/75, wild type (influenza A virus A/Victoria/3/75)
Experiment: cryo-EM structure

Substance “influenza virus nucleoprotein (NP), A/Victoria/3/75, wild type (natural protein)” has a stoichiometry N of 9.
